Source: CN111087470A

Target: 人CD47 (human) (UniProt Q08722)
Test: flow cytometry on red blood cells, commercial B6H12.2 as comparison

B1: 商品化抗CD47抗体B6H12.2 (antibody, from another filing)
scFv: EVQLVESGGDLVKPGGSLKLSCAASGFTFSGYGMSWVRQTPDKRLEWVATITSGGTYTYYPDSVKGRFTISRDNAKNTLYLQIDSLKSEDTAIYFCARSLAGNAMDYWGQGTSVTVSSGGGGSGGGGSGGGGSDIVMTQSPATLSVTPGDRVSLSCRASQTISDYLHWYQQKSHESPRLLIKFASQSISGIPSRFSGSGSGSDFTLSINSVEPEDVGVYYCQNGHGFPRTFGGGTKLEIKEQKLISEEDL
- 结合率: 99.2%
